One substance from article PMC5687611 can be followed below.

The target of assay [1] is L3C7-hPD-L1 phage clone (displayed on M13 phage) (human) (UniProt Q9NZQ7). Nature of the assay: ELISA; inhibition phage ELISA: phage displaying hPD-L1 variants incubated with 1.6 µM non-biotinylated soluble hPD-1 for 1 h before adding to plates with captured biotinylated hPD-1.
Assay [2] addresses L3B3-hPD-L1 phage clone (displayed on M13 phage) (human) (UniProt Q9NZQ7). Described as above.

For the substance “soluble non-biotinylated hPD-1 (residues 33-150, C93S) (from UniProt Q15116 33-150) (domain or fragment)”, the inhibition rate at 1.6 µM soluble hPD-1 in assay [1] amounted to 82.6%; in assay [2] it was 86.7%.
